For experiment [1], the system named is senescent WI-38 cells induced by IR (IR-SC). The experiment is described as follows: Apoptosis by Annexin V-FITC staining and flow cytometry, WI-38 IR-SC. The format is cell-based, human. The protocol:
FIG. 2A, FIG. 2B, FIG. 2C, FIG. 2D, FIG. 2E, FIG. 2F, FIG. 2G, FIG. 2H, FIG. 2I, FIG. 2J, FIG. 2K, FIG. 2L, FIG. 2M and FIG. 2N depict graphs showing that FasAb and Trail selectively kill senescent cells by induction of apoptosis. (FIG. 2A, FIG. 2B, FIG. 2C, FIG. 2D) Non-senescent cells (NC) and senescent WI-38 cells induced by IR (IR-SC) were incubated with different concentrations of FasAb (Clone CH11, Cat #05-201, Millipore, Mass., USA) or Trail (Cat #310-04, Peprotech, N.J., USA) for 3 days to count number of viable cells. […] (FIG. 2E, FIG. 2F) WI-38 NC and IR-SC were incubated with vehicle (Veh), FasAb (10 ng/ml) or Trail (12.5 ng/ml) for 3 days, and apoptosis in these cells was determined by Annexin V-FITC staining and flow cytometry. […] (FIG. 2G, FIG. 2H) NCs and IR-SCs were incubated with vehicle (Veh), FasAb (10 ng/ml) or Trail (12.5 ng/ml) for 3 days after the cells were preincubated with vehicle (Veh) or 10 μM Q-VD-OPh hydrate (QVD) for 2 hours, and apoptosis in these cells was determined by Annexin V-FITC staining and flow cytometry. […]
WI-38 NC and IR-SC were incubated with vehicle (Veh), FasAb (10 ng/ml) or TRAIL (12.5 ng/ml) for 3 days, and apoptosis in these cells was determined by Annexin V-FITC staining and flow cytometry. […]

Experiment [2] shares this test system. The experiment is described as follows: Viable cell count, senescent WI-38 cells induced by IR. The format is cell-based, human. The protocol: FIG. 2A, FIG. 2B, FIG. 2C, FIG. 2D, FIG. 2E, FIG. 2F, FIG. 2G, FIG. 2H, FIG. 2I, FIG. 2J, FIG. 2K, FIG. 2L, FIG. 2M and FIG. 2N depict graphs showing that FasAb and Trail selectively kill senescent cells by induction of apoptosis. (FIG. 2A, FIG. 2B, FIG. 2C, FIG. 2D) Non-senescent cells (NC) and senescent WI-38 cells induced by IR (IR-SC) were incubated with different concentrations of FasAb (Clone CH11, Cat #05-201, Millipore, Mass., USA) or Trail (Cat #310-04, Peprotech, N.J., USA) for 3 days to count number of viable cells. The data presented are means±SD of viable cells as a percent of control without FasAb or Trail treatment from 3 independent experiments. **, p<0.01; ***, p<0.001; and ****, p<0.0001, vs. without FasAb or Trail. (FIG. 2E, FIG. 2F) WI-38 NC and IR-SC were incubated with vehicle (Veh), FasAb (10 ng/ml) or Trail (12.5 ng/ml) for 3 days, and apoptosis in these cells was determined by Annexin V-FITC staining and flow cytometry. […] (FIG. 2G, FIG. 2H) NCs and IR-SCs were incubated with vehicle (Veh), FasAb (10 ng/ml) or Trail (12.5 ng/ml) for 3 days after the cells were preincubated with vehicle (Veh) or 10 μM Q-VD-OPh hydrate (QVD) for 2 hours, and apoptosis in these cells was determined by Annexin V-FITC staining and flow cytometry. […]

Experiment [3] relates to senescent IMR90 cells induced by IR (IR-SC). The experiment is described as follows: Viable cell count, senescent IMR90 cells induced by IR. The format is cell-based. The following applies: different concentrations, 3 days (FIG. 2K-2N).

`CC(C)[C@H](NC(=O)c1ccc2ccccc2n1)C(=O)N[C@@H](CC(=O)O)C(=O)COc1c(F)cccc1F` [QVD, Q-VD-OPh hydrate, reference compound]: in experiment [1] (10 μM QVD preincubated 2 hours, then FasAb 10 ng/ml or TRAIL 12.5 ng/ml for 3 days (FIG. 2G, 2H)), the “effect of QVD on apoptosis induced by FasAb and TRAIL” value was “blocked the ability of FasAb and TRAIL to induce apoptosis”. The “effect of QVD on the viable cell reduction by FasAb and TRAIL” value in experiment [2] (IR-SC, 10 μM QVD preincubated 2 hours, then FasAb 10 ng/ml or TRAIL 12.5 ng/ml for 3 days (FIG. 2I, 2J)) was “blocks the activity observed with FasAb and TRAIL”.

B1: TRAIL: recombinant TNF-related apoptosis-inducing ligand, Cat #310-04, Peprotech (protein, UniProt P50591 1-281, looked up)
Tumor necrosis factor ligand …: MAMMEVQGGPSLGQTCVLIVIFTVLLQSLCVAVTYVYFTNELKQMQDKYSKSGIACFLKEDDSYWDPNDEESMNSPCWQVKWQLRQLVRKMILRTSEETISTVQEKQQNISPLVRERGPQRVAAHITGTRGRSNTLSSPNSKNEKALGRKINSWESSRSGHSFLSNLHLRNGELVIHEKGFYYIYSQTYFRFQEEIKENTKNDKQMVQYIYKYTSYPDPILLMKSARNSCWSKDAEYGLYSIYQGGIFELKENDRIFVSVTNEHLIDMDHEASFFGAFLVG
Consider B1, for which the “apoptosis (Annexin V-FITC+ cells)” value in experiment [1] (WI-38 IR-SC, FasAb 10 ng/ml or TRAIL 12.5 ng/ml, 3 days, relative to untreated or non-senescent cells (FIG. 2E, 2F)) is listed as “significantly increased”. For the same molecule, the “number of viable cells (reported as apoptosis induction)” value in experiment [3] is recorded as “induced apoptosis”. The “number of viable cells” value in experiment [2] (WI-38 IR-SC vs NC, different concentrations, 3 days (FIG. 2A-2D)) is reported as “significantly reduced the number of viable cells relative to NC”.

The record behind these values is US20180002431A1, “FAS AND DRs ARE NOVEL MOLECULAR TARGETS OF SENESCENT CELLS” (BioVentures, LLC, priority 2015, published 2018).
